Data: publication PMC3781208 (Chemistry & biology, 2013)
Positions of bridges follow the written chain, without caps; N, C: chain ends. Non-standard residues stand in square brackets, D forms with d. Residues, ends and D or L forms follow the SMILES beside them. *: point of attachment. FITC = O=C1OC2(c3ccc(O)cc3Oc3cc(O)ccc32)c2ccc(NC(=S)*)cc21; S5 = C=CCCC[C@](C)(N)C(=O)O; Nle = CCCC[C@H](N)C(=O)O; βAla = NCCC(=O)O

What was measured:
BAXΔC = BAXΔC (Homo sapiens, UniProt Q07812); experiment: Fluorescence polarization binding assay, BAXΔC; details: ratio of FP KDs
FITC-PUMA SAHBF1 = FITC-PUMA SAHBF1 (UniProt Q9BXH1); experiment: fluorescence polarisation
[1] = molecular target: FITC-PUMA BH3 (aa 131–153) (UniProt Q9BXH1); experiment: fluorescence polarisation
Sequence of FITC-PUMA BH3 (aa 131–153) (Q9BXH1 131-153): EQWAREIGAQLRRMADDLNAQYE

Sequence of BAXΔC (Q07812 whole entry, stated change not applied): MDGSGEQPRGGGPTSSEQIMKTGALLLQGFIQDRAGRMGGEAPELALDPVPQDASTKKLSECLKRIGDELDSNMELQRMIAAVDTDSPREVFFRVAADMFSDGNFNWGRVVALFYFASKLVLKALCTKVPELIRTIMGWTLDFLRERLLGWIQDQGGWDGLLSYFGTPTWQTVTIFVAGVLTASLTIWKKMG

Molecule | preference for BAXΔC over BAX A112C/V177C (BAXΔC) | Kd (FITC-PUMA SAHBF1) | Kd [1]
CCCC[C@@H]1NC(=O)[C@@](C)(NC(=O)[C@H](CCCNC(=N)N)NC(=O)[C@H](CC(C)C)NC(=O)[C@H](CCC(N)=O)NC(=O)[C@H](C)NC(=O)CNC(=O)[C@@H](NC(=O)[C@H](CCC(=O)O)NC(=O)[C@H](CCCNC(=N)N)NC(=O)[C@H](C)NC(=O)[C@H](Cc2c[nH]c3ccccc23)NC(=O)[C@H](CCC(N)=O)NC(=O)[C@H](CCC(=O)O)NC(=O)CCNC(=S)Nc2ccc3c(c2)C(=O)OC32c3ccc(O)cc3Oc3cc(O)ccc32)[C@@H](C)CC)CCCC=CCCC[C@@](C)(C(=O)N[C@@H](CC(C)C)C(=O)N[C@@H](CC(N)=O)C(=O)N[C@@H](C)C(=O)N[C@@H](CCC(N)=O)C(=O)N[C@@H](Cc2ccc(O)cc2)C(=O)N[C@@H](CCC(=O)O)C(N)=O)NC(=O)[C@H](CC(=O)O)NC(=O)[C@H](C)NC1=O [FITC-PUMA SAHBA1] ({FITC-βAla}-EQWAREIGAQLR[S5][Nle]AD[S5]LNAQYE-NH2; staple 13-17; N-terminus and C-terminus assumed) | 3 fold |  | 
BAX A112C/V177C (from UniProt Q07812 1-192) (natural protein) |  | 90 nM | 
BAXΔC (domain or fragment) |  | 70 nM | 306 nM
